Consider 1 molecule from patent publication US20180094056A1 (Genentech, published 2018).

Test [1] deals with T1, recombinant human Her2 ECD (Human Her2/ErbB2 protein, catalog #10004-HCCH, Sino Biological Inc.) (human, UniProt P04626 23-652).
T1 construct: extracellular domain; also called HER2 antigen; HER2 target
Put plainly: SPR (Biacore T200), HER2 ECD immobilised on CM5, anti-HER2/CD3 TDB as analyte. In general terms: In SPR one partner is held on a chip, and binding of the other changes the refractive index at the surface.

Test [2] deals with T1, recombinant human Her2 ECD (Human …). Put plainly: SPR (Biacore), conditions of Example 1, HER2 ECD immobilized on CM5 chip.
For test [3] the target is unchanged. Put plainly: SPR (Biacore), conditions of Example 1, human Her2 ECD immobilized on CM5 chip.

B1: 4D5v3-40G5 anti-HER2/CD3 TDB (bispecific antibody, V domains shown)
VH 1: not shown
VL 1: not shown
VH 2: EVQLVQSGAEVKKPGASVKVSCKASGYTFTNYYIHWVRQAPGQGLEWIGWIYPGDGNTKYNEKFKGRATLTADTSTSTAYLELSSLRSEDTAVYYCARDSYSNYYFDYWGQGTLVTVSS
VL 2: DIVMTQSPDSLAVSLGERATINCKSSQSLLNSRTRKNYLAWYQQKPGQPPKLLIYWASTRESGVPDRFSGSGSGTDFTLTISSLQAEDVAVYYCTQSFILRTFGQGTKVEIK
notes: also called HER2 TDB
As for B1, in test [1], the “fold affinity relative to wildtype 4D5 TDB” value was about 10 fold. In addition, the results for the dissociation constant (Kd) in test [2] and in test [3] were 0.06 nM and 0.04 nM, respectively.

By Kd is commonly meant the constant that tells how readily two partners part at equilibrium.
